Experiment: soluble on expression in E. coli; label from the status in PepcDB or PDB records

Sequence | soluble on expression in E. coli
MGSDKIHHHHHHMSYRIVVDPKEVVKPISRHIYGHFTEHLGRCIYGGIYEEGSPLSDERGFRKDVLEAVKRIKVPNLRWPGGNFVSNYHWEDGIGPKDQRPVRFDLAWQQEETNRFGTDEFIEYCREIGAEPYISINMGTGTLDEALHWLEYCNGKGNTYYAQLRRKYGHPEPYNVKFWGIGNEMYGEWQVGHMTADEYARAAKEYTKWMKVFDPTIKAIAVGCDDPIWNLRVLQEAGDVIDFISYHFYTGSDDYYETVSTVYLLKERLIGVKKLIDMVDTARKRGVKIALDEWNVWYRVSDNKLEEPYDLKDGIFACGVLVLLQKMSDIVPLANLAQLVNALGAIHTEKDGLILTPVYKAFELIVNHSGEKLVKTHVESETYNIEGVMFINKMPFSVENAPFLDAAASISEDGKKLFIAVVNYRKEDALKVPIRVEGLGQKKATVYTLTGPDVNARNTMENPNVVDITSETITVDTEFEHTFKPFSCSVIEVELE | not soluble
MGSDKIHHHHHHMAEKVDYAALKKGGFMRQKQKGCFSLRIAVVGGNLTAENIKTVAEVAEKYGHGYVHMTSRQGIEIPFIKVEDINVVKEELAKGGVGTGVCGPRVRTVTACQGSEICPSGCIDTYTLAKELDERYFGRELPHKFKFGVTGCQNNCLKAEENDVGIKGGMTVECSHDDCIQCGVCVKACREGALSMEDGRIVIDRDKCNNCARCVKSCPTDAWKGTPGYIVSFGGLFGNHIYKGEQLVPIIRDKETLFRVTDAAISFFEKHANGGERFRLTLQRVGEEEFKKEIQAAYEGK | not soluble
MVAVSFGAAFRETLEGSGNPQDEFEKLEFEEAYWPELYTTRGPEDDEIYQPFIGPWDYETDLPELHETQGPEDNEVYQPFPGPCFP | not soluble
MKALALFSGGLDSLLSMKLIQEMGIEVVALHFNIGFGANRDKLEYLQNATAQIGVELRVLDIQEQFFNEVLFNPVHGYGKYFNPCIDCHANMFRHALRLLEGEGASFIISGEVIGQRPKSQRREALHQVENLTQTKGLILRPLSAKLLPPTLAEERGWVDREKLLDIHGRGRDRQLAMAKSYGWVYFE | not soluble
TLSRDDAAQVAKVLSEALPYIRRFVGKTLVIKYGGNAMESEELKAGFARDVVLMKAVGINPVVVHGGGPQIGDLLKRLSIESHFIDGMRVTDAATMDVVEMVLGGQVNKDIVNLINRHGGSAIGLTGKDAELIRAKKLTVTRQTPEMTKPEIIDIGHVGEVTGVNVGLLNMLVKGDFIPVIAPIGVGSNGESYNINADLVAGKVAEALKAEKLMLLTNIAGLMDKQGQVLTGLSTEQVNELIADGTIYGGMLPKIRCALEAVQGGVTSAHIIDGRVPNAVLLEIFTDSGVGTLISNRKRH | soluble
MGSDKIHHHHHHMRTPVPRVAAIHDLSGFGRTSLTVAMPVLSSMGVQVCPLPTAVLSTHTSGFENFSFVDLTEQMHSILDHWQSLNLKFDAVYSGFLGSPEQVDIVARCIDMFRTPDGLAVVDPVMGDNGEMEPTMTLEMVHRMRWLVTKADIITPNFTEAAFLLDEKYTTEATVSTVKDWLRRLTAMGPSIAIITSVPVHGDERRSAVMAYNRRHDRFWKVDCSYIPAHYPGTGDTFASVVTGALLQGDSLPIAMDRAVQFVTMGIRATFGHNLPSRDGILLERVLDTLRAPVTSSSFELLDNDGEQCACR | not soluble
MGSSHHHHHHSSGRENLYFQGVRPAVIAATGLYTPPDSVSNAELVEAFNTYVANFNAANKARIEAGEIEPLQPSSSEFIEKASGIKSRYVVAKPGIVDPDVMRPIIPERSNDELSILAEMAVTAAEQAIERWGKPRERIGAVLCACSNMQRAYPAMAIEVQNALGLGGFAFDMNVACSSATFGLKTAADFVGGGSVDAVLMVNPEICSGHLNFRDRDSHFIFGDVATAAIVERADDAQGGWSILGTKLKTQFSNNIRNNAGFLNRAWPEGRDKADKLFVQQGRKVFKEVVPLVSEMIIEHAREIGIDPHGLKRMWLHQANINMNEIIGRKVLGRDPTRDENVIILDDYANTSSAGSIIAFHKHQDDMAQGDLGLICSFGAGYSAGTVFVQKR | soluble
MSLKAFGFNQYGNSNVMEELNIPIPKIKPGEVLVKTTAFAINAFDIAVRNGQFRNNVTLLFPTILGTDGVGRIVKLGAGVHDYSIGDDVLARPGIGTYTEYFKVSVDHLGSRPSNYSPYEAAGLPLSGITAYNTLVHIAHVKQGQTVVILGSSGGVGSMLVQMAHALGLYVIGTDAESARETVLNLGASEFGAYDTERVSSKFKSMADILIDATNLGASIAGIQIIKPTGTYVSLTTLPKDRTLKPDVIYRQVIPRREYRDSDAFTTISLMIRNNQLHVPIDHLESFTLDGIRKGQSDVENGSPDGKVIVTLEGHHHHHH | not soluble
MCRMFLCHGNFGEDAGRLFLALSETAKNDPLLVKAGSTWTSHSDGWGMAMLSDGSIRFEKHSRPVYEDSVPTIISSGTVLAHARKASPGEPLGNAFSHPFYAEDERYIVLLAHNGSLDKHRIANCDPKCYDRNTDSGLFLSYIMTFPGTVKERFERAIFESLKNGVFGKLTNLLVVALDKFTMIEERLYFSHNASRSEYGDLYLVNGRGWTGVFSSSILMSAHFPAYVSKSKVENDTVMDLP | not soluble
GMDVLQKEIDEVYATHPTAHEALDNGIVEQHQQFVRSLTEVNGGCAVISDLSNRKSYVTVHPWANFLGLTPEEAALSVIDSMDEDCIYRRIHPEDLVEKRLMEYKFFQKTFSMSPGERLKYRGRCRLRMMNEKGVYQYIDNLVQIMQNTPAGNVWLIFCLYSLSADQRPEQGIYATITQMERGEVETLSLSEEHRNILSEREKEILRCIRKGLSSKEIAATLYISVNTVNRHRQNILEKLSVGNSIEACRAAELMKLL | soluble
MGSDKIHHHHHHMSLLSVEHLSHGFADKELYEDANFELNKEDHMGIVGQNGAGKSTLIKILTGETLPDKGRIIWQNKVTYGYLDQYADIPKEDTLYEFLTTAYAELFRQRDLMEKYYADYAENLDDKLLEKAGRIQENLDANNFYDIDTEINRVMTGLGLDDIGKDHIVSEMSGGQRSKIILAKLLLQNPDVLILDEPTNYLDTAHISWLADYLNGFEGAFMVISHDYDFLQKVTNCICDVSFNKITKYRGDFQSAMRQKDARKEAQLKAFEKQQVVIEKAENFIRKNKAGQRSTMAKSREKMLNRMEKIDPPSENLKGHFDFPYLDTGSQNAVAVNKLAVGYGKKQLLEPVTFSMSAGEKVAFSGFNGAGKSTLIKSILGVIPALGGEAHFSPSAKVNYFTQELIWDNPKLTPLETIQNQYPKMLPKTIRTKLAKCGINAADTMKPMKQLSGGEQTKVKLALMELIDSNFLIMDEPTNHLDDETKRALSEALQRFKGNLIVVSHEDSFYSQWIDKEINVEKLRLDRE | not soluble
MSDESNPPKVILLVEDSKADSRLVQEVLKTSTIDHELIILRDGLAAMAFLQQQGEYENSPRPNLILLDLNLPKKDGREVLAEIKQNPDLKRIPVVVLTTSHNEDDVIASYELHVNCYLTKSRNLKDLFKMVQGIESFWLETVTLPAAPG | soluble
MSWWKRIFSRSESSTTESNSASSLPAADLDDDLLVEVKNLVAITGPKMPYELARLLKISHARATRLAAAANAQNPTPSRARTSDAQAQQPAAASPKPPAEPVAAEPKKKRAKKATPVEAGLPPLTGKITGGHACAFDVVGESYYQPALRRLRNGRHMATDNDFVADIVAEPDNPHDPNACAVYIEGFKVGYLPRDAAADFQQQVADMGVTGTWRLQTKAKLSGGWGDRPMVGVLLSLPKSLEHHHHHH | not soluble
MAHHHHHHMTSSSVTPDQVLAFTAPTERFLCPLTANKYGVEFYQFTIRDIEQNKVLFEVGEAPDGSADGSVTDMLARVAQLSEEEAAAARTIRYRFAPSFLRKTAVGAKLVFGVNGDQPVPKFRMIERHYFRNVLIKSFDFEFGFCIPHSTNTWEAIYDMPSLNPEWEEAIVASPFEMASDSFYFVGNELIMHNKAYYAYDGEEL | not soluble
MDVSFEFEHYQVRLIKSSDAVTIANYFMRNRHHLAPWEPKRSHAFFTPEGWKQRLLQLVELHKHNLAFYFVVVDKNEHKIIGTVSYSNITRFPFHAGHVGYSLDSEYQGKGIMRRAVNVTIDWMFKAQNLHRIMAAYIPRNEKSAKVLAALGFVKEGEAKKYLYINGAWEDHILTSKINDDWKPE | not soluble
MQHHKVAIIGAGAAGIGMAITLKDFGITDVIILEKGTVGHSFKHWPKSTRTITPSFTSNGFGMPDMNAISMDTSPAFTFNEEHISGETYAEYLQVVANHYELNIFENTVVTNISADDAYYTIATTTETYHADYIFVATGDYNFPKKPFKYGIHYSEIEDFDNFNKGQYVVIGGNESGFDAAYQLAKNGSDIALYTSTTGLNDPDADPSVRLSPYTRQRLGNVIKQGARIEMNVHYTVKDIDFNNGQYHISFDSGQSVHTPHEPILATGFDATKNPIVQQLFVTTNQDIKLTTHDESTRYPNIFMIGATVENDNAKLCYIYKFRARFAVLAHLLTQREGLPAKQEVIENYQKNQMYLDDYSCCEVSCTCLEHHHHHH | soluble
MGSDKIHHHHHHALSSDYFTTTPQVLEAVGGKVPVTINGKFPEKYFKKNAVVEVTPVLKWEGGQVKGQPAVFQGEKVEGNDQTISYKMGGNYTMKTTFDYVPEMAKSELYLEFNAKVGKKTIAIPAVKIADGVISTSELINNTLSSANPALGDDAFQRIIKEAHNANIMFLIQQANIRSSELKTAKEFNKEVANVNDAENKKISNIEISAYASPDGGVKLNTGLAENREGNTTKLINKDLKKAKIEVPVDAKYTAQDWEGFQELVSKSNIQDKELILRVLSMYQDPEQRETEIKNISSVYKTLADEILPQLRRSRLTLNYEIIGKSDEEIANLAATDPKQLNVEEILYAATLTNDPAKKADIYTKASQQFPNDYRAFNNLGKLAYQAGDLDKAQSYVKKAESIKSAPEVNMNLGLIALAKGDKAAAESYLGKAAGAKELNETLGNLYVAQGQYERAVNAFGDTKTNSAALAQILAKDYNKAKNTLAGIATPDAYTDYLMAVLGARTNNTSMLTSSLKSAVAKNPALAKKAATDLEFAKYYTNADFMSIVK | not soluble
MSLAAGKHTKHSNRVRIIGGQCRGRKLSFTSADGLRPTPDSVREKLFNWLGQDLTGKTVLDLFGGSGALGIEAASRNAKRVLISDNNRQTVQTLQKNSRELGLGQVQIVFSDGIAYLKTVSEQFDVVFLDPPFAWQDWQILFDALKPCLNPRAFVYLEAGTLPNIPDWLTEYREGKSGQSTFELRVFQVAEEGHHHHHH | soluble
MVRKGCNSLVRAEKILTHIAWVGMASYMELLNKFQYPKSSLLNLLNVMVDCGFLIKNKNGYYSLGIKNYELGCQALHRQNIFEVTKRPMQELSLKSGLVCHLGAMESISAIYLDKIESPDSVPTSKSWIGKKLELHITALGKALLAWKTREELDYFLEALTLTPHTRNTFTDKKLFLEELQKTRLRGWAIDNEESTYGAVCLSMPVFNMYNRVNYAISLSGDPVVYSGNKIDSYLELLRKCAEQISYGLGYRNENEHLRKGN | soluble
MDLHLKNLFGRFQEQFGSGPGLGPGSGVCLMIVEGISSNIIQSIFRASASLYSSEPWKRLRPGHLFGVRVGKDSDWSGKRQPFQCVQFIGGDGGDIAIYMYRSMSYALKMTDGDSWEMARDPNVEVFRVTYELESLMLPSNKRMVKSLSLEVSGTDRFPIMDVARCMTSGELQFRSPTLEELRLVFAVMKALSLVHPLLLQEEKQVRGLPRMIKFSPFIETVDVQWPSEMGKGHDFVAVTVSHPPGQSYEQKREDDELEIVSGMTA | soluble
MGSDKIHHHHHHMSSKVKVIAFYLPQFHPIPENDEWWGKGFTEWTSVGRAKKYYRGHYQPRVPADLGYYDLRLPQVRQQQADLAKEAGISAFCYWHYWFGNGKQLLENPLQEVVKLGEPDFPFCLGWANHTWLNKSWNREKQTVIPKPLILQEYPGKKDVDCHFYTMLPMFRDQRYFRIHGKLLFLIYAPLDIPNFKYFKMRWNELASQNDLPGFYFIANSEDISNIKNPIIREFEAVSLCRLYSAWNIEGKKVNNIVIRITRNISRILGYSLNKISYKKAIEKIDTPYYEEDRVYPNIIPGWDNSPRRGPGAFIFHKATPALFKKHVKMILNRIKDKPDEDKVIFLKSWNEWAEGNYMEPDLKWGKGYIRALREALEEDAK | not soluble

From the DeepSol protein solubility set
